# In patent US20220315554A1, “COMPOUNDS COMPRISING A […] LIGAND AND USE THEREOF” (priority 2019, published 2022):
# Numbered stars: 1 amine (or outer) side, 2 acyl side, 3 side chain; on linkers, the order of the positions; unused ones are H or OH. Bridge positions count the residues as written; N and C are the ends. Ends that are not written are not given here. * marks the point of attachment. Ttds = 1,13-diamino-4,7,10-trioxatridecan-succinamic acid, NCCCOCCOCCOCCCNC(=O)CCC(=O)*; tMeBn(DOTA-AET) = Cys-Cys bridge (thioethers) carrying DOTA-AET; tMeBn(DOTA-PP) = Cys-Cys bridge (thioethers) carrying DOTA-PP; DOTA = O=C(O)CN1CCN(CC(=O)O)CCN(CC(=O)*)CCN(CC(=O)O)CC1; mXylylene = c1cc(C[*:1])cc(C[*:2])c1; tMeBn(LuDOTA-AET) = not defined here; 2Lut = Cys-Cys bridge (thioethers); 3Lut = Cys-Cys bridge (thioethers); Pentanesulfonyl = CCCCCS(=O)(=O)*; PentylNH‑urea = CCCCCNC(=O)*; Hexanoyl = CCCCCC(=O)*
# T1: Recombinant human FAP (R&D systems, #3715-SE) (human)
# T1 sequence: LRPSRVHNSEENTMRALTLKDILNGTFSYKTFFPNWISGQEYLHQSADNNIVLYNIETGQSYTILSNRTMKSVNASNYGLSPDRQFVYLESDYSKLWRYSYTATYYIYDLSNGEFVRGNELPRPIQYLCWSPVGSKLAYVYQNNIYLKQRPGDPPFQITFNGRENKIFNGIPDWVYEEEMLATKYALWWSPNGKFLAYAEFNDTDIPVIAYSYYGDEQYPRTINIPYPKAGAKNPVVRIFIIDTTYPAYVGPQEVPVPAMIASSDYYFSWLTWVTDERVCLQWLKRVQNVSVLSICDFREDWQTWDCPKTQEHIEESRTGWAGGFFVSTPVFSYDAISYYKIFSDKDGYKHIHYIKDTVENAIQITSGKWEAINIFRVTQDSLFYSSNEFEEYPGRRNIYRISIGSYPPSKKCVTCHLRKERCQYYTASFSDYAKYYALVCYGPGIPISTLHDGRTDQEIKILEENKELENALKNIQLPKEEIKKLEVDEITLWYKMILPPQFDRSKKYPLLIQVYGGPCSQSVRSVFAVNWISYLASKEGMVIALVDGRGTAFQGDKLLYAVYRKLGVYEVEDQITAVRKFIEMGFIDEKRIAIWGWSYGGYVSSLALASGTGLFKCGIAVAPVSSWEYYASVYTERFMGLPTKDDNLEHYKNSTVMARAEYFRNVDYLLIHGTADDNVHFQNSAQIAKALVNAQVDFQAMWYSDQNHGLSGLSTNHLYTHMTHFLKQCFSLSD
# Molecular target: T1, Recombinant human FAP (R&D systems, #3715-SE) (human)
# Test: not given
# Conditions: not given
row,Binder,pIC50 Category (Activity) [pIC50]
1,Hexanoyl-CPPTQFCD-NH2 (linker 1-7 via tMeBn(EuDOTA-PP); also: Eu-DOTA complex) [Hex-[Cys(tMeBn(EuDOTA-PP))-Pro-Pro-Thr-Gln-Phe-Cys]-Asp-NH2],> 8
2,Hexanoyl-CPPTEFC-NH2 (linker 1-7 via tMeBn(DOTA-AET)) [Hex-[Cys(tMeBn(DOTA-AET))-Pro-Pro-Thr-Glu-Phe-Cys]-NH2],> 8
3,Hexanoyl-CPPTQFCD-NH2 (linker 1-7 via tMeBn(GaDOTA-PP)) [Hex-[Cys(tMeBn(GaDOTA-PP))-Pro-Pro-Thr-Gln-Phe-Cys]-Asp-NH2],> 8
4,Hexanoyl-CPPTEFCD-NH2 (linker 1-7 via mXylylene; SMILES CCCCCC(=O)N[C@H]1CSCc2cccc(c2)CSC[C@@H](C(=O)N[C@@H](CC(=O)O)C(N)=O)NC(=O)[C@H](Cc2ccccc2)NC(=O)[C@H](CCC(=O)O)NC(=O)[C@H]([C@@H](C)O)NC(=O)[C@@H]2CCCN2C(=O)[C@@H]2CCCN2C1=O) [Hex-[Cys(3MeBn)-Pro-Pro-Thr-Glu-Phe-Cys]-Asp-NH2],> 8
5,Hexanoyl-CPPTQFCD-NH2 (linker 1-7 via tMeBn(LuDOTA-PP); also: Lu-DOTA complex) [Hex-[Cys(tMeBn(LuDOTA-PP))-Pro-Pro-Thr-Gln-Phe-Cys]-Asp-NH2],> 8
6,Pentanesulfonyl-CPPTQFCD-NH2 (linker 1-7 via tMeBn(DOTA-PP)) [Pentyl-SO2-[Cys(tMeBn(DOTA-PP))-Pro-Pro-Thr-Gln-Phe-Cys]-Asp-NH2],> 8
7,Hexanoyl-CPPTQFCD-NH2 (linker 1-7 via 2Lut) [Hex-[Cys(2Lut)-Pro-Pro-Thr-Gln-Phe-Cys]-Asp-NH2],> 8
8,Hexanoyl-CPPTQFCD-NH2 (linker 1-7 via mXylylene; SMILES CCCCCC(=O)N[C@H]1CSCc2cccc(c2)CSC[C@@H](C(=O)N[C@@H](CC(=O)O)C(N)=O)NC(=O)[C@H](Cc2ccccc2)NC(=O)[C@H](CCC(N)=O)NC(=O)[C@H]([C@@H](C)O)NC(=O)[C@@H]2CCCN2C(=O)[C@@H]2CCCN2C1=O) [Hex-[Cys(3MeBn)-Pro-Pro-Thr-Gln-Phe-Cys]-Asp-NH2],> 8
9,Hexanoyl-CPPTEFCDHFRD-NH2 (linker 1-7 via mXylylene; SMILES CCCCCC(=O)N[C@H]1CSCc2cccc(c2)CSC[C@@H](C(=O)N[C@@H](CC(=O)O)C(=O)N[C@@H](Cc2c[nH]cn2)C(=O)N[C@@H](Cc2ccccc2)C(=O)N[C@@H](CCCNC(=N)N)C(=O)N[C@@H](CC(=O)O)C(N)=O)NC(=O)[C@H](Cc2ccccc2)NC(=O)[C@H](CCC(=O)O)NC(=O)[C@H]([C@@H](C)O)NC(=O)[C@@H]2CCCN2C(=O)[C@@H]2CCCN2C1=O) [Hex-[Cys(3MeBn)-Pro-Pro-Thr-Glu-Phe-Cys]-Asp-His-Phe-Arg-Asp-NH2],> 8
10,Hexanoyl-CPPTQFCD-NH2 (linker 1-7 via tMeBn(DOTA-AET)) [Hex-[Cys(tMeBn(DOTA-AET))-Pro-Pro-Thr-Gln-Phe-Cys]-Asp-NH2],> 8
11,Hexanoyl-CPPTQFCS-OH (linker 1-7 via tMeBn(DOTA-AET)) [Hex-[Cys(tMeBn(DOTA-AET))-Pro-Pro-Thr-Gln-Phe-Cys]-Ser-OH],> 8
12,Ac-CPPTEFCDHFRD-NH2 (linker 1-7 via mXylylene; SMILES CC(=O)N[C@H]1CSCc2cccc(c2)CSC[C@@H](C(=O)N[C@@H](CC(=O)O)C(=O)N[C@@H](Cc2c[nH]cn2)C(=O)N[C@@H](Cc2ccccc2)C(=O)N[C@@H](CCCNC(=N)N)C(=O)N[C@@H](CC(=O)O)C(N)=O)NC(=O)[C@H](Cc2ccccc2)NC(=O)[C@H](CCC(=O)O)NC(=O)[C@H]([C@@H](C)O)NC(=O)[C@@H]2CCCN2C(=O)[C@@H]2CCCN2C1=O) [Ac-[Cys(3MeBn)-Pro-Pro-Thr-Glu-Phe-Cys]-Asp-His-Phe-Arg-Asp-NH2],> 8
13,Hexanoyl-CPPTQFCD-OH (linker 1-7 via tMeBn(DOTA-AET)) [Hex-[Cys(tMeBn(DOTA-AET))-Pro-Pro-Thr-Gln-Phe-Cys]-Asp-OH],> 8
14,CPPTQFCD (N-terminal Hex (hexanoyl); Cys1-Cys7 bridged by tMeBn(DOTA-AET) (thioethers); D-Asp8 (asp); C-terminal amide) [Hex-[Cys(tMeBn(DOTA-AET))-Pro-Pro-Thr-Gln-Phe-Cys]-asp-NH2],> 8
15,Hexanoyl-CPPTQFCD (linker 1-7 via mXylylene; not fully specified (C-terminus); printed as Hex-[Cys(3MeBn)-Pro-Pro-Thr-Gln-Phe-Cys]-Asp-Ttds-Ape(DOTA)) [Hex-[Cys(3MeBn)-Pro-Pro-Thr-Gln-Phe-Cys]-Asp-Ttds-Ape-NH-DOTA'],> 8
16,Hexanoyl-CPPTQFCD-NH2 (linker 1-7 via tMeBn(InDOTA-PP); also: In-DOTA complex) [Hex-[Cys(tMeBn(InDOTA-PP))-Pro-Pro-Thr-Gln-Phe-Cys]-Asp-NH2],> 8
17,Pentanesulfonyl-CPPTQFCD-NH2 (linker 1-7 via mXylylene; SMILES CCCCCS(=O)(=O)N[C@H]1CSCc2cccc(c2)CSC[C@@H](C(=O)N[C@@H](CC(=O)O)C(N)=O)NC(=O)[C@H](Cc2ccccc2)NC(=O)[C@H](CCC(N)=O)NC(=O)[C@H]([C@@H](C)O)NC(=O)[C@@H]2CCCN2C(=O)[C@@H]2CCCN2C1=O) [Pentyl-SO2-[Cys(3MeBn)-Pro-Pro-Thr-Gln-Phe-Cys]-Asp-NH2],> 8
18,{DOTA-Ttds}-LCPPTEFCDHFRD-NH2 (linker 2-8 via mXylylene) [DOTA-Ttds-Leu-[Cys(3MeBn)-Pro-Pro-Thr-Glu-Phe-Cys]-Asp-His-Phe-Arg-Asp-NH2],> 8
19,Hexanoyl-CPPTQFCD (linker 1-7 via mXylylene; not fully specified (C-terminus); printed as Hex-[Cys(3MeBn)-Pro-Pro-Thr-Gln-Phe-Cys]-Asp-Ape(DOTA)) [Hex-[Cys(3MeBn)-Pro-Pro-Thr-Gln-Phe-Cys]-Asp-Ape-NH-DOTA'],> 8
20,Hexanoyl-CPPTQFCD-NH2 (linker 1-7 via 3Lut) [Hex-[Cys(3Lut)-Pro-Pro-Thr-Gln-Phe-Cys]-Asp-NH2],> 8
21,{PentylNH‑urea}-CPPTQFCD-NH2 (linker 1-7 via mXylylene; SMILES CCCCCNC(=O)N[C@H]1CSCc2cccc(c2)CSC[C@@H](C(=O)N[C@@H](CC(=O)O)C(N)=O)NC(=O)[C@H](Cc2ccccc2)NC(=O)[C@H](CCC(N)=O)NC(=O)[C@H]([C@@H](C)O)NC(=O)[C@@H]2CCCN2C(=O)[C@@H]2CCCN2C1=O) [PentylNH-urea-[Cys(3MeBn)-Pro-Pro-Thr-Gln-Phe-Cys]-Asp-NH2],> 8

# Molecular target: T2, human fibroblast activation protein (FAP) on FAP-expressing human WI-38 fibroblasts (human)
# Test: competition FACS, WI-38 cells, vs Cy5-labeled compound; A: pIC50 >8.0
# Conditions: remark: other sources report otherwise
row,Binder,pIC50 Category (FACS) [pIC50]
1,Hexanoyl-CPPTQFC-OH (linker 1-7 via tMeBn(InDOTA-AET); also: In-DOTA complex) [Hex-[Cys(tMeBn(InDOTA-AET))-Pro-Pro-Thr-Gln-Phe-Cys]-OH],> 8
2,Hexanoyl-CPPTQFC-OH (linker 1-7 via tMeBn(EuDOTA-AET); also: Eu-DOTA complex) [Hex-[Cys(tMeBn(EuDOTA-AET))-Pro-Pro-Thr-Gln-Phe-Cys]-OH],> 8
3,Hexanoyl-CPPTEFCD-NH2 (linker 1-7 via mXylylene; SMILES CCCCCC(=O)N[C@H]1CSCc2cccc(c2)CSC[C@@H](C(=O)N[C@@H](CC(=O)O)C(N)=O)NC(=O)[C@H](Cc2ccccc2)NC(=O)[C@H](CCC(=O)O)NC(=O)[C@H]([C@@H](C)O)NC(=O)[C@@H]2CCCN2C(=O)[C@@H]2CCCN2C1=O) [Hex-[Cys(3MeBn)-Pro-Pro-Thr-Glu-Phe-Cys]-Asp-NH2],> 8
4,Hexanoyl-CPPTQFC-NH2 (linker 1-7 via tMeBn(DOTA-AET)) [Hex-[Cys(tMeBn(DOTA-AET))-Pro-Pro-Thr-Gln-Phe-Cys]-NH2],> 8
5,Pentanesulfonyl-CPPTQFC-OH (linker 1-7 via tMeBn(DOTA-AET)) [Pentyl-SO2-[Cys(tMeBn(DOTA-AET))-Pro-Pro-Thr-Gln-Phe-Cys]-OH],> 8
6,Hexanoyl-CPPTQFC-NH2 (linker 1-7 via tMeBn(InDOTA-AET); also: In-DOTA complex) [Hex-[Cys(tMeBn(InDOTA-AET))-Pro-Pro-Thr-Gln-Phe-Cys]-NH2],> 8
7,"Hexanoyl-CPPTQFC-OH (linker 1-7 via tMeBn(LuDOTA-AET); reading uncertain; also: Lu-DOTA complex, printed as Hex-[Cys(tMeBn(LuDOTA-AET))-Pro-Pro-Thr-Gln-Phe-Cys]-OH) [Hex-[Cys(tMeBn(LuDOTA-AET))-Pro-Pro-Thr-Gln-Phe-Cys]-OH]",> 8
8,Hexanoyl-CPPTQFC-OH (linker 1-7 via tMeBn(DOTA-AET)) [Hex-[Cys(tMeBn(DOTA-AET))-Pro-Pro-Thr-Gln-Phe-Cys]-OH],> 8

# Molecular target: T2, human fibroblast activation protein …
# Test: competition FACS, WI-38 cells, vs Cy5-labeled compound; D: pIC50 ≤6.0
# Conditions: remark: other sources report otherwise
row,Binder,pIC50 Category (FACS) [pIC50]
1,Hexanoyl-CAPTEFC-NH2 (linker 1-7 via mXylylene; SMILES CCCCCC(=O)N[C@H]1CSCc2cccc(c2)CSC[C@@H](C(N)=O)NC(=O)[C@H](Cc2ccccc2)NC(=O)[C@H](CCC(=O)O)NC(=O)[C@H]([C@@H](C)O)NC(=O)[C@@H]2CCCN2C(=O)[C@H](C)NC1=O) [Hex-[Cys(3MeBn)-Ala-Pro-Thr-Glu-Phe-Cys]-NH2],< 6
